Reference: patent publication US10703820B2, “Methods and compositions for reducing cardiac damage and other conditions” (Tufts Medical Center, Inc., priority 2013, dated 2020)
Marks after values point to notes of the source that are not given here.

Legend:
[1] = tested on: endoglin; test: TGFβ1 stimulation of right ventricular fibroblasts (RVFB) pretreated with N-Eng Ab; type: cell-based, mouse and human; settings: N-Eng Ab 10, 50, 100 μg/mL, TGFβ1 10 ng/mL
Protocol: (§1) 115:67-75, 2007 and Neuss et al., Cell Tissue Res. 286:145-153, 1996. For neutralizing antibody studies in vitro, mouse cardiac fibroblasts were pretreated with 10, 50, or 100 ug/mL of either a N-Eng Ab or control IgG Ab for 24 hours in fibroblast basal medium without supplementation prior to stimulation with TGFβ1 (10 ng/mL). After 24 hours, cells were harvested for analysis. […] 7:e5-920, 2012.

[2] = target: T1, endoglin (Homo sapiens, UniProt P17813); test: TGFβ1 stimulation of left ventricular fibroblasts (LVFB) pretreated with N-Eng Ab; type: cell-based, mouse and human; settings: N-Eng Ab 10, 50, 100 μg/mL, TGFβ1 10 ng/mL
T1 construct: endogenous in cells; host or cells: primary right and left ventricular cardiac fibroblasts (mouse and/or human)
T1 sequence (P17813 26-658): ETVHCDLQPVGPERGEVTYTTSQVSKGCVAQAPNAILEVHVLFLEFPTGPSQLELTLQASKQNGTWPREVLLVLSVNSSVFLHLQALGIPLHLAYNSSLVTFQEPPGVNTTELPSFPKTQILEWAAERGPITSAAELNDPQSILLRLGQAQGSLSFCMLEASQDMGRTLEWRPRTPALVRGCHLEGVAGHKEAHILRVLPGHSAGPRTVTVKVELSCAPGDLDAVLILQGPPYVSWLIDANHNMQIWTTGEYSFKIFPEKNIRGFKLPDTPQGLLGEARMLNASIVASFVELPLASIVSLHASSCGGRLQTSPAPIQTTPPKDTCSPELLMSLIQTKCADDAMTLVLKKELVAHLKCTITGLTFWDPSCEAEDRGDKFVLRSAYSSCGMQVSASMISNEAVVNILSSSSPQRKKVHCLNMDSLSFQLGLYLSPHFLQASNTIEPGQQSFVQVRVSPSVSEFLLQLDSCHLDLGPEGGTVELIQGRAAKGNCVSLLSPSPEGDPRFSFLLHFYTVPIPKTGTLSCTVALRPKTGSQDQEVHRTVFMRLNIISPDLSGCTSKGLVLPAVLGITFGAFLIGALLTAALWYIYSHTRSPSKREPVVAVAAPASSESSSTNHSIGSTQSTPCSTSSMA
Protocol: as §1

[3] = target: T2, endoglin (Mus musculus, UniProt Q63961); test: Chronic moderate RVPO (PAC), antibody given from week 3 to week 6
T2 sequence (Q63961 27-653): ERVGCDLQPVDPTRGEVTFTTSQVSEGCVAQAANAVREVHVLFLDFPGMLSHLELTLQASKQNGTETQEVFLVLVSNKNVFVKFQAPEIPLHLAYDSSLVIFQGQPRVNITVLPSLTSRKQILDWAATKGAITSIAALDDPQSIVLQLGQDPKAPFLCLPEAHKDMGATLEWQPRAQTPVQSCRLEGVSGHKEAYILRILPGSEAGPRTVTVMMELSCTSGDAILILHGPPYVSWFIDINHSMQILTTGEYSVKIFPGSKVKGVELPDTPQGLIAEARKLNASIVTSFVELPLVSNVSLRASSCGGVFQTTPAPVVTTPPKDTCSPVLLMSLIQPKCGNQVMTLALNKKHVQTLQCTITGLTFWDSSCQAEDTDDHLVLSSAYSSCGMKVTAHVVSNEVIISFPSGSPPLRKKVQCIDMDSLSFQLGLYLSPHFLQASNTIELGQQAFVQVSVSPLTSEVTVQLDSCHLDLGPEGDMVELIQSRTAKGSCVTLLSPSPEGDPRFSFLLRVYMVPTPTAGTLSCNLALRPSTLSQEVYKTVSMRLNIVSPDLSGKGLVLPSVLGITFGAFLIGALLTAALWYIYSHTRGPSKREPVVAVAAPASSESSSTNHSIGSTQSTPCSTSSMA
Protocol: (§2) Specifically, mice were intubated using a 24G angiocath and mechanically ventilated (Harvard Apparatus) at 95 breaths per minute with a tidal volume of 0.3 mL with 2.0-2.5% Isoflurane and 100% flow-through oxygen. Depth of anesthesia was monitored by assessing palpebral reflex, toe pinch, respirations, and general response to touch. Using sterile technique, a left thoracotomy was performed to isolate and encircle the main pulmonary artery using a 7-0 nylon suture that is then tied tightly around a pre-sterilized, blunt end needle. After de-airing, the thorax is closed with layered 6-0 Dexon sutures to eliminate the risk of pneumothorax. Post-operative analgesia is immediately provided with subcutaneous buprenorphine 0.1 mL, which is continued twice daily and as needed for an additional 72 hours. Severe RVPO was induced by PAC with a 25G needle for 7 days in WT and Eng+/− mice. To investigate the role of endoglin in RVPO, WT mice received 15 mg/kg of either a neutralizing antibody to endoglin (N-Eng Ab; TRC105; Tracon Pharma) or an IgG1 control antibody (IgG Ab; R&D Systems) via single intraperitoneal injection 1 day prior to and 3 days after induction of severe RVPO. To study the effect of blocking endoglin activity after induction of RVPO, WT mice were randomized to receive biweekly IP injections for three weeks of 15 mg/kg N-Eng Ab or IgG control Ab beginning three weeks after induction of moderate RVPO using a 23G needle for PAC. […] After 7 days of severe PAC or 3 to 6 weeks of moderate RVPO, mice underwent hemodynamic analysis with a RV conductance catheter (Millar Inc) as previously described in Kapur et al., PLoS ONE. […] Briefly, mice were anesthetized with 2.0% isoflurane administered via a non-invasive nose-cone. Body temperature was monitored by a rectal thermistor probe and maintained at 37.5° C. with heating pads and a cycling heat lamp. In the supine position, the right external jugular vein was surgically isolated. A conductance catheter was advanced into the right ventricle for pressure-volume loop acquisition as described in Kapur et al., PLoS ONE. […] After completion of the hemodynamic study, with the animal still under isoflurane anesthesia, the chest was rapidly opened, and the mouse was euthanized by arresting the heart in diastole with 0.3 mL of 1N KCL injected directly into the left ventricle. The heart was then removed and processed for either biochemical or histologic analyses.
(§3) All animals underwent terminal hemodynamic evaluation. Right heart catheterization was performed at the time of sacrifice in all animals. Mice were anesthetized with 2.0% isoflurane administered by a noninvasive nose cone. Body temperature was monitored by a rectal thermistor probe and maintained at 37.5° C. with heating pads and a cycling heat lamp. In the supine position, the right common carotid and right external jugular vein were surgically isolated. Silk ties were placed at the distal ends of both vessels while overhand loops were placed at the proximal ends with 7-0 nylon. A Millar PVR-1035 (Millar Instruments) mouse conductance catheter was used for RV recordings.

[4] = target: T2, endoglin; test: Severe RVPO induced by PAC for 7 days in wild-type mice pre-treated with N-Eng Ab
Protocol: as §2, §3

[5] = 6 weeks moderate RVPO, antibody for the last 3 weeks
[6] = moderate PAC 6 weeks, N-Eng Ab 15 mg/kg IP biweekly for the last 3 weeks
[7] = Sham, wild-type mice + N-Eng Ab 15 mg/kg IP
[8] = after severe RVPO, compared to the IgG group
[9] = severe PAC 7 days, N-Eng Ab 15 mg/kg IP 1 day prior and 3 days after

N-Eng Ab: neutralizing IgG1 antibody that binds human and mouse endoglin (TRC105), provided by Tracon Pharmaceuticals
TGFβ1 induced calcineurin protein expression [1]: inhibited | TGFβ1 induced protein levels of pERK-1/2 [1]: inhibited | TGFβ1 induced protein levels of pSmad-3 [1]: inhibited | TGFβ1 induced α-SMA protein expression [1]: inhibited | TGFβ1 induced calcineurin protein expression ([1]; listed as TRC105): attenuated | TGFβ1 induced calcineurin protein expression [2]: not LVFB | TGFβ1 induced protein levels of pERK-1/2 [2]: inhibited | TGFβ1 induced protein levels of pSmad-3 [2]: inhibited | TGFβ1 induced α-SMA protein expression [2]: not LVFB | TGFβ1 induced calcineurin protein expression ([2]; listed as TRC105): not LV fibroblasts | Calcineurin protein expression [3, 5]: reduced | RV fibrosis [3, 5]: significantly reduced | Type I collagen protein expression [3, 5]: reduced | RV fibrosis ([3]; 6 weeks moderate RVPO, antibody for the last 3 weeks, listed as TRC105): reduced RV fibrosis | Cardiac output [3, 6]: 1.4 ± 0.6 mL/min | Heart rate [3, 6]: 550 ± 52 beats per min | LV weight/tibial length [3, 6]: 4.5 ± 0.2 g/mm | RV +dp/dt [3, 6]: 4072 ± 875 mm Hg/sec | RV end-diastolic pressure [3, 6]: 2 ± 1 mm Hg | RV stroke volume [3, 6]: 3 ± 2 µL | RV systolic pressure [3, 6]: 69 ± 14 mm Hg | RV weight/tibial length [3, 6]: 2.5 ± 0.4 g/mm | RV −dp/dt [3, 6]: 3916 ± 875 mm Hg/sec | Total body weight [3, 6]: 27 ± 2 g | Mortality ([3]; moderate RVPO, any time point): No mortality was observed | Cardiac output [4, 7]: 4.0 ± 1 mL/min | Heart rate [4, 7]: 512 ± 59 beats per min | LV weight/tibial length [4, 7]: 6 ± 0.01 | RV +dp/dt [4, 7]: 2171 ± 283 mm Hg/sec | RV end-diastolic pressure [4, 7]: 3 ± 2 mm Hg | RV stroke volume [4, 7]: 8 ± 2 µL | RV systolic pressure [4, 7]: 24 ± 3 mm Hg | RV weight/tibial length [4, 7]: 1.5 ± 0.01 g/mm | RV −dp/dt [4, 7]: 1963 ± 257 mm Hg/sec | Total body weight [4, 7]: 28 ± 1 g | Survival ([4]; after 7 days of severe RVPO, compared to IgG treatment): improved survival | RV MYH7 mRNA levels ([4]; after severe RVPO): reduced | RV TRPC-6 mRNA levels ([4]; after severe RVPO): reduced | RV mass (degree of hypertrophy) ([4]; after severe RVPO): attenuated | RV α-SMA mRNA levels ([4]; after severe RVPO): reduced | RV Type I collagen levels [4, 8]: reduced | RV calcineurin levels [4, 8]: reduced | RV fibrosis [4, 8]: significantly reduced | RV pERK-1/2 levels [4, 8]: reduced | RV pSmad-3 levels [4, 8]: reduced | Cardiac output [4, 9]: 2.4 ± 0.2 mL/min | Heart rate [4, 9]: 514 ± 52 beats per min | LV weight/tibial length [4, 9]: 5 ± 0.02 | RV +dp/dt [4, 9]: 4130 ± 563 mm Hg/sec | RV end-diastolic pressure [4, 9]: 4 ± 2 mm Hg | RV stroke volume [4, 9]: 5 ± 1 µL | RV systolic pressure [4, 9]: 53 ± 9 mm Hg | RV weight/tibial length [4, 9]: 1.9 ± 0.01*^,† g/mm | RV −dp/dt [4, 9]: 3287 ± 350 mm Hg/sec | Total body weight [4, 9]: 24 ± 2 g | RV cardiomyocyte cross sectional area ([4]; severe RVPO, compared to IgG controls (p=0.09)): trend towards lower cardiomyocyte hypertrophy
